Reference: patent publication US11001846B2, “Aptamers, nucleic acid molecules, polynucleotides, synthetic antibodies compositions for detecting PRRS viruses and treating PRRS virus infection” (AEROVIRUS TECHNOLOGIES INC., priority 2015, dated 2021)
Entries after “also recorded” stand apart in the source; their conditions may differ.

B1: PEU-499: ssDNA aptamer binding type 1 (Lelystad) PRRSV M-S-S-GP5 complex (nucleic acid)
DNA: GGGCGACCCTGAAGAGTACACACGGGACACACACACACTCACTAGACGAAACGGTGAAAGCCGTAGGTTGCCC
modifications: DNA, backbone and methylation of C not given here
B2: A501: ssDNA candidate aptamer for type 2 PRRSV M-S-S-GP5 complex; used as control irrelevant nucleotide in Example 4 (nucleic acid)
DNA: GGGCGACCCTGAAGAGAAAGGTGAGTTTATTGCGGGGGTTATTTATTGCTTCGAAACGGTGAAAGCCGTAGGTTGCCC
modifications: DNA, backbone and methylation of C not given here
B3: PEU-842: ssDNA aptamer binding type 1 (Lelystad) PRRSV M-S-S-GP5 complex (nucleic acid)
DNA: GGGCGACCCTGAAGAGGACCAGAAGCACGGACCACACACAGCGTATCGAAACGGTGAAAGCCGTAGGTTGCCC
modifications: DNA, backbone and methylation of C not given here
B4: PEU-852: ssDNA aptamer binding type 1 (Lelystad) PRRSV M-S-S-GP5 complex (nucleic acid)
DNA: GGGCGACCCTGAAGAGGACACTGCACGTACACAACGAGGATGAACACGAAACGGTGAAAGCCGTAGGTTGCCC
modifications: DNA, backbone and methylation of C not given here
B5: A507: ssDNA aptamer binding type 2 PRRSV M-S-S-GP5 complex (nucleic acid)
DNA: GGGCGACCCTGAAGAGGTTTGCATATTATAGTTATAGGAGGTGTGTAATGGACGAAACGGTGAAAGCCGTAGGTTGCCC
modifications: DNA, backbone and methylation of C not given here
B6: PEU-424: ssDNA aptamer binding type 1 (Lelystad) PRRSV M-S-S-GP5 complex (nucleic acid)
DNA: GGGCGACCCTGAAGAGGATGTTGATAGAGCGCCGACCACACACGCACGAAACGGTGAAAGCCGTAGGTTGCCC
modifications: DNA, backbone and methylation of C not given here
B7: PEU-962: ssDNA aptamer binding type 1 (Lelystad) PRRSV M-S-S-GP5 complex (nucleic acid)
DNA: GGGCGACCCTGAAGAGGATAGACAATAGCACACCACGCCCCTGCCACGAAACGGTGAAAGCCGTAGGTTGCCC
modifications: DNA, backbone and methylation of C not given here

Assays:
[1] = tested on: LHVA-93-3 PRRS virus; assay: In-vivo lung virus titer, LHVA-93-3, comparison with control oligonucleotide and Tilmicosin (Example 4); design: species or system swine
Description: Swine were inoculated intranasally with sub-lethal infectious fluid containing 40TCID50/ml PRRS virus (LHVA-93-3) with or without 2.5 nmole A505 aptamer for different time intervals. Pig body weight was monitored for 2 weeks. Viral titer in the lungs was determined by the CPE titration method (OIE Terrestrial Manual—May 2015, Chapter 2.8.7—Porcine Reproductive and Respiratory Syndrome, section 1.1.3). Other pigs were sacrificed 6 days following viral inoculation and lungs were removed and homogenized in PBS 0.1% BSA (10% w/v). Following homogenization, samples were centrifuged to remove debris and stored at −80° C.
The cells/viruses were incubated for 2-5 days and observe daily for a CPE. At day 2, seed macrophages in new microtitre plates. Fifty (50) μl of the supernatants were transferred from the plates of the first passage to the corresponding wells of the freshly seeded plates (second passage). The wells were incubated for 2-5 days and observed daily for a CPE. The results of the CPE assays were presented as log TCID50.
Tilmicosin (Pulmotil®) was purchased from Eli Lilly (Elanco®), Canada.
Were implemented as described hereinabove. A dose of 15 ug/Kg of A505 was used.
The ability of the A505 aptamer to inhibit PRRSV infection was also compared to that of one of the currently available “anti-PRRSV” drugs, the antibiotic Tilmicosin. To this end, both A505 and Tilmicosin were administered once, together with the virus, using the intra-nasal route. As is shown in Table 2 below, a dose of 60 mg/pig of Tilmicosin (1 mg/kg body weight) reduced virus titer by 0.42 log TCID50, representing a 2.6-fold reduction in virus burden. This is in comparison to a reduction by 1.21 log TCID50 affected by A505 in this particular experiment (over 10 fold reduction in virus burden).

[2] = tested on: type 1 (Lelystad) PRRSV; conditions: after MTT screening of 10 candidates
Description: (§2) Using various tetrazolium (MTT) colorimetric assay procedures^[xxxvi], these aptamers have been “screened” to identify the ones having the highest and fastest binding capabilities for detection and therapeutics purposes for both types of PRRSV. It should be pointed out that the aptamer having the quickest binding efficiency but not necessarily the highest binding strength is the most suitable one for the biosensor.

[3] = tested on: M-S-S-GP5 peptidic complex; assay: ELISA reverse screening: binding to M-S-S-GP5 peptidic complex, type 1; design: species or system type 1 PRRSV (Lelystad); conditions: type 1 PRRSV complex
Description: (§1) ssDNA aptamers were denatured at 80° C. for 10 min and then cooled on ice for 10 min. Aptamers (30 nmole) were mixed with 25 μg of M-S-S-GP5 peptidic complex (further described in Example 6 below) in 500 μl selection buffer (50 mM Tris-HCl; pH 7.4, 5 mM KCl, 100 mM NaCl, 1 mM MgCl2 tRNA, 0.2% BSA) at 37° C. for 30 min. Aptamer-peptide complex was purified by adding the 25 μl Ni-NTA superflow and amplified by PCR using primers directed to the common T3 sequences in the aptamer library, and 3′-primer (i.e. -[…]-3′). SELEX was repeated 3 times, following which amplified nucleotides were transformed into E. coli. PCR conditions for SELEX included 5 min 95° C./1 min 95° C./1 min 55° C./1 min 72° C./10 min 72° C. and 100 pmole of each primer.
Selected ssDNA molecules from each individual clone were biotinylated using the B-T3 which is same sequence with 5′ primer (T3 primer), and Klenow fragment (2 unit/ml). To prepare single stranded biotin conjugated CoocSeq5 aptamer for the reverse screening, T3 Primer was Biotin labelled. A 96-well flat bottom ELISA plate was prepared by coating each well with 100 μl of streptavidin (100 μg/ml) diluted in 0.1 M NaHCO3 following by a 37° C. overnight incubation. Following several washings with PBS, wells were blocked with 200 μl of PBS containing 1% BSA for 2 hours at room temperature and subsequent washing three times with PBS-T (10 mM PBS containing 0.05% (v/v) Tween-20). Thereafter, 100 μl of 2.5 pmole/100 μl biotinylated-ssDNA were added to the wells and incubated at 37° C. for 2 hours followed by washing four times with PBS-T. T3 primer was used as negative control. Following washing, 100 μl of fluid containing 2 μg histidine labelled M-S-S-GP5 peptidic complex were added to the indicated wells and incubated at 37° C. for 2 hours. The wells were then washed for 4 times with PBS-T. The reverse screening assay was completed by ELISA. […]

[4] = tested on: type 2 PRRSV; conditions: after MTT screening of 10 candidates
Description: as §2

[5] = tested on: M-S-S-GP5 peptidic complex; assay: ELISA reverse screening: binding to M-S-S-GP5 peptidic complex, type 2; conditions: type 2 PRRSV complex
Description: as §1
Selected ssDNA molecules from each individual clone were biotinylated using the B-T3 which is same sequence with 5′ primer (T3 primer), and Klenow fragment (2 unit/ml). To prepare single stranded biotin conjugated CoocSeq5 aptamer for the reverse screening, T3 Primer was Biotin labelled. A 96-well flat bottom ELISA plate was prepared by coating each well with 100 μl of streptavidin (100 μg/ml) diluted in 0.1 M NaHCO3 following by a 37° C. overnight incubation. Following several washings with PBS, wells were blocked with 200 μl of PBS containing 1% BSA for 2 hours at room temperature and subsequent washing three times with PBS-T (10 mM PBS containing 0.05% (v/v) Tween-20). […]
High binding capacity ELISA plates (Immunoplate, Nunc) were coated with 100 μl allantoic fluid containing 500 TCID50 of various PRRS virus strains diluted in phosphate buffered saline (PBS) by incubating at 4° C. overnight. […] Following this incubation period, plates were washed five times in PBS-T and bound antibodies were detected using horseradish peroxidase labelled goat anti-mouse IgG conjugates (HRP). […] Reaction was terminated with 50 μl of 2M H2SO4, plates were read with a multichannel spectrophotometer at 570 nm.

Molecule | binding capabilities from biosensing and therapeutic perspectives [2] | binding to the M-S-S-GP5 complex/heterodimer [3] | further results
CC[C@H]1OC(=O)C[C@@H](O)[C@H](C)[C@@H](O[C@@H]2O[C@H](C)[C@@H](O)[C@H](N(C)C)[C@H]2O)[C@@H](CCN2C[C@H](C)C[C@H](C)C2)C[C@@H](C)C(=O)/C=C/C(C)=C/[C@@H]1CO[C@@H]1O[C@H](C)[C@@H](O)[C@@H](OC)[C@H]1OC [Tilmicosin, reference compound] |  |  | Reduction Factor ([1]; Table 2, administered once with the virus, intra-nasal): 2.6; Δ (log TCID50), reduction of virus titer ([1]; administered once together with the virus, intra-nasal, Tilmicosin 60 mg/pig (1 mg/kg), A505 15 ug/Kg): 0.42 log TCID50; reduction in virus burden ([1]; administered once with the virus, intra-nasal): 2.6 fold
B1 | good binding capabilities | binding capacity to the M-S-S-GP5 complex; also recorded: found to bind the M-S-S-GP5 heterodimer | 
B2 |  |  | change in lung virus titer ([1]; LHVA-93-3, FIG. 13b): insignificant change in the viral titer
B3 | good binding capabilities | binding capacity to the M-S-S-GP5 complex; also recorded: found to bind the M-S-S-GP5 heterodimer | 
B4 | good binding capabilities | binding capacity to the M-S-S-GP5 complex; also recorded: found to bind the M-S-S-GP5 heterodimer | 
B5 |  |  | binding capabilities from biosensing and therapeutic perspectives [4]: highest binding capabilities; binding to the M-S-S-GP5 complex/heterodimer [5]: binding capacity to the M-S-S-GP5 complex; also recorded: found to bind the M-S-S-GP5 heterodimer
B6 | good binding capabilities | binding capacity to the M-S-S-GP5 complex; also recorded: found to bind the M-S-S-GP5 heterodimer | 
B7 | good binding capabilities | binding capacity to the M-S-S-GP5 complex; also recorded: found to bind the M-S-S-GP5 heterodimer | 
